{
  "source": "patent US20170137467A1",
  "about": "(CHROMOTEK, published 2017)",
  "binders": {"B1": {"name": "BC2 nanobody (VHH)", "VHH": "QVQLVESGGGLVQPGGSLTLSCTASGFTLDHYDIGWFRQAPGKEREGVSCINNSDDDTYYADSVKGRFTIFMDNAKDTVYLQMNSLKPEDTAIYYCAEARGCKRGRYEYDFWGQGTQVTVSS", "notes": "immobilised on beads in this assay; also called BC2-Nb; BC2 nanotrap (immobilised)"}, "B2": {"name": "BC2-NbR106S (VHH)", "VHH": "QVQLVESGGGLVQPGGSLTLSCTASGFTLDHYDIGWFRQAPGKEREGVSCINNSDDDTYYADSVKGRFTIFMDNAKDTVYLQMNSLKPEDTAIYYCAEARGCKRGSYEYDFWGQGTQVTVSS", "notes": "headlock mutant of BC2-Nb; immobilised on beads in this assay"}},
  "assay_in_all_cases": "positional peptide library pulldown on immobilised Nb, LC-MS of supernatant; signal ratio to control GFP-Nb (1 = not captured, near 0 = captured)",
  "key": {"BC2T S8A": {"target": "T1, BC2T S8A", "T1 construct": "positional scanning library member", "T1 peptide": "Ac-PDRKAAVAHWQQ-NH2", "method_in_brief": "(§1)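 Unbound peptide left in supernatant after 1 h pulldown in PBS/0.01% CHAPS measured by reversed-phase LC-MS (8–30% eluent B gradient, 20 min).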"}, "BC2T Q11K": {"target": "T2, BC2T Q11K", "T2 construct": "positional scanning library member", "T2 peptide": "Ac-PDRKAAVSHWKQ-NH2", "method_in_brief": "as §1"}, "BC2T H9M": {"target": "T3, BC2T H9M", "T3 construct": "positional scanning library member", "T3 peptide": "Ac-PDRKAAVSMWQQ-NH2", "method_in_brief": "as §1"}, "BC2T Q12T": {"target": "T4, BC2T Q12T", "T4 construct": "positional scanning library member", "T4 peptide": "Ac-PDRKAAVSHWQT-NH2", "method_in_brief": "as §1"}, "BC2T H9G": {"target": "T5, BC2T H9G", "T5 construct": "positional scanning library member", "T5 peptide": "Ac-PDRKAAVSGWQQ-NH2", "method_in_brief": "as §1"}, "BC2T Q12Y": {"target": "T6, BC2T Q12Y", "T6 construct": "positional scanning library member", "T6 peptide": "Ac-PDRKAAVSHWQY-NH2", "method_in_brief": "as §1"}, "BC2T Q11G": {"target": "T7, BC2T Q11G", "T7 construct": "positional scanning library member", "T7 peptide": "Ac-PDRKAAVSHWGQ-NH2", "method_in_brief": "as §1"}, "BC2T S8H": {"target": "T8, BC2T S8H", "T8 construct": "positional scanning library member", "T8 peptide": "Ac-PDRKAAVHHWQQ-NH2", "method_in_brief": "as §1"}, "BC2T H9S": {"target": "T9, BC2T H9S", "T9 construct": "positional scanning library member", "T9 peptide": "Ac-PDRKAAVSSWQQ-NH2", "method_in_brief": "as §1"}, "BC2T H9W": {"target": "T10, BC2T H9W", "T10 construct": "positional scanning library member", "T10 peptide": "Ac-PDRKAAVSWWQQ-NH2", "method_in_brief": "as §1"}, "BC2T H9F": {"target": "T11, BC2T H9F", "T11 construct": "positional scanning library member", "T11 peptide": "Ac-PDRKAAVSFWQQ-NH2", "method_in_brief": "as §1"}, "BC2T W10A": {"target": "T12, BC2T W10A", "T12 construct": "positional scanning library member", "T12 peptide": "Ac-PDRKAAVSHAQQ-NH2", "method_in_brief": "as §1"}, "BC2T H9N": {"target": "T13, BC2T H9N", "T13 construct": "positional scanning library member", "T13 peptide": "Ac-PDRKAAVSNWQQ-NH2", "method_in_brief": "as §1"}, "BC2T S8P": {"target": "T14, BC2T S8P", "T14 construct": "positional scanning library member", "T14 peptide": "Ac-PDRKAAVPHWQQ-NH2", "method_in_brief": "as §1"}, "BC2T S8M": {"target": "T15, BC2T S8M", "T15 construct": "positional scanning library member", "T15 peptide": "Ac-PDRKAAVMHWQQ-NH2", "method_in_brief": "as §1"}, "BC2T Q12F": {"target": "T16, BC2T Q12F", "T16 construct": "positional scanning library member", "T16 peptide": "Ac-PDRKAAVSHWQF-NH2", "method_in_brief": "as §1"}, "BC2T H9R": {"target": "T17, BC2T H9R", "T17 construct": "positional scanning library member", "T17 peptide": "Ac-PDRKAAVSRWQQ-NH2", "method_in_brief": "as §1"}, "BC2T Q12C(Abu)": {"target": "T18, BC2T Q12C(Abu) (SMILES …)", "T18 construct": "positional scanning library member", "T18 peptide": "Ac-PDRKAAVSHWQ[GABA]-NH2", "method_in_brief": "as §1"}, "BC2T Q12(I/L1)": {"target": "T19, BC2T Q12(I/L1) (N-terminal acetyl; C-terminal amide)", "T19 construct": "positional scanning library member; I or L not resolved", "method_in_brief": "as §1"}, "BC2T Q12(I/L2)": {"target": "T20, BC2T Q12(I/L2) (N-terminal acetyl; C-terminal amide)", "T20 construct": "positional scanning library member; I or L not resolved", "method_in_brief": "as §1"}, "BC2T Q12H": {"target": "T21, BC2T Q12H", "T21 construct": "positional scanning library member", "T21 peptide": "Ac-PDRKAAVSHWQH-NH2", "method_in_brief": "as §1"}},
  "note": "Square brackets hold non-standard residues; d marks the D form. GABA = NCCCC(=O)O",
  "data": [
    {"binder": "B1", "values": [
      {"measurement": "ratio", "setting": "BC2T S8A", "result": 0},
      {"measurement": "ratio", "setting": "BC2T Q11K", "result": 0},
      {"measurement": "ratio", "setting": "BC2T H9M", "result": 0.1},
      {"measurement": "ratio", "setting": "BC2T Q12T", "result": 0.1},
      {"measurement": "ratio", "setting": "BC2T H9G", "result": 0.4},
      {"measurement": "ratio", "setting": "BC2T Q12Y", "result": 0.1},
      {"measurement": "ratio", "setting": "BC2T Q11G", "result": 0.1},
      {"measurement": "ratio", "setting": "BC2T S8H", "result": 0.7},
      {"measurement": "ratio", "setting": "BC2T H9S", "result": 0.2},
      {"measurement": "ratio", "setting": "BC2T H9W", "result": 0.1},
      {"measurement": "ratio", "setting": "BC2T H9F", "result": 0.1},
      {"measurement": "ratio", "setting": "BC2T W10A", "result": 1},
      {"measurement": "ratio", "setting": "BC2T H9N", "result": 0.1},
      {"measurement": "ratio", "setting": "BC2T S8P", "result": 0.7},
      {"measurement": "ratio", "setting": "BC2T S8M", "result": 0.6},
      {"measurement": "ratio", "setting": "BC2T Q12F", "result": 0.2},
      {"measurement": "ratio", "setting": "BC2T H9R", "result": 0.1},
      {"measurement": "ratio", "setting": "BC2T Q12C(Abu)", "result": 0.1},
      {"measurement": "ratio", "setting": "BC2T Q12(I/L1)", "result": 0.1},
      {"measurement": "ratio", "setting": "BC2T Q12(I/L2)", "result": 0.1},
      {"measurement": "ratio", "setting": "BC2T Q12H", "result": 0.1}
    ]},
    {"binder": "B2", "values": [
      {"measurement": "ratio", "setting": "BC2T S8A", "result": 0.1},
      {"measurement": "ratio", "setting": "BC2T Q11K", "result": 0.1},
      {"measurement": "ratio", "setting": "BC2T H9M", "result": 0.3},
      {"measurement": "ratio", "setting": "BC2T Q12T", "result": 0.3},
      {"measurement": "ratio", "setting": "BC2T H9G", "result": 0.8},
      {"measurement": "ratio", "setting": "BC2T Q12Y", "result": 0.3},
      {"measurement": "ratio", "setting": "BC2T Q11G", "result": 0.5},
      {"measurement": "ratio", "setting": "BC2T S8H", "result": 0.9},
      {"measurement": "ratio", "setting": "BC2T H9S", "result": 0.5},
      {"measurement": "ratio", "setting": "BC2T H9W", "result": 0.1},
      {"measurement": "ratio", "setting": "BC2T H9F", "result": 0.3},
      {"measurement": "ratio", "setting": "BC2T W10A", "result": 1},
      {"measurement": "ratio", "setting": "BC2T H9N", "result": 0.3},
      {"measurement": "ratio", "setting": "BC2T S8P", "result": 1},
      {"measurement": "ratio", "setting": "BC2T S8M", "result": 1},
      {"measurement": "ratio", "setting": "BC2T Q12F", "result": 0.4},
      {"measurement": "ratio", "setting": "BC2T H9R", "result": 0.2},
      {"measurement": "ratio", "setting": "BC2T Q12C(Abu)", "result": 0.2},
      {"measurement": "ratio", "setting": "BC2T Q12(I/L1)", "result": 0.2},
      {"measurement": "ratio", "setting": "BC2T Q12(I/L2)", "result": 0.2},
      {"measurement": "ratio", "setting": "BC2T Q12H", "result": 0.3}
    ]}
  ]
}
